Results: US20240350586A1 (TSINGHUA UNIVERSITY, published 2024)

What was measured:
[1] = biological target: T1, CCT2 D2-P7 fusion protein (Homo sapiens (Human), UniProt P78371 217-519); test: co-IP
T1 construct: D2 domain of CCT2 fused to the P7 peptide of CCT2; also called HA-D2-P7; not shown: HA tag of plasmid pFUGW-HA-D2-P7
T1 sequence: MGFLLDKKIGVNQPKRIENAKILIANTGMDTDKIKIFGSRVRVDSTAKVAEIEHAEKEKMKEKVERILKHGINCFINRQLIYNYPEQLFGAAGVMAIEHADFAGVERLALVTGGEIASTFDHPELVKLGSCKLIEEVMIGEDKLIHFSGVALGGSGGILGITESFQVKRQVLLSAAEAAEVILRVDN
Procedure: (§1) Co-immunoprecipitation was performed essentially as described before. In brief, 24 h after transfection, the cells were collected and lysed on ice for 30 min in co-IP buffer (50 mM Tris/HCl pH 7.4, 150 mM NaCl, 1 mM EDTA, 0.5% NP40) with protease inhibitor mixture, and the lysates were cleared by centrifugation. The resulting supernatants were incubated with indicated agarose or magnetic beads and rotated at 4° C. for 3 h. The agarose was washed five times with co-IP buffer. As for the BFP-tagged Q103, the supernatants were incubated with rabbit anti-BFP antibodies and Protein A/G PLUS-Agarose according to the manufacturers' protocol. After washing, 2×SDS loading buffer was added to the beads, and immunoblot was performed as described previously.

[2] = biological target: T2, GFP-CCT2 D3 (aa369-535 of CCT2) (human, UniProt P78371 369-535); test: co-IP of GFP-tagged CCT2 variants with T7-LC3C in HEK293T
T2 construct: also called C-terminal one-third of CCT2; not shown: GFP tag
T2 sequence: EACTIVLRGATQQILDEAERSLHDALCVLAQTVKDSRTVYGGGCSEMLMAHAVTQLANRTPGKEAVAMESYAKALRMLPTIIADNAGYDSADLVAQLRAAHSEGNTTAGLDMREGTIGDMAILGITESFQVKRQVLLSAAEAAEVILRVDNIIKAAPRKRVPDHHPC
From the text: The cells were permeabilized with digitonin before fixation. [0136] (G) Quantification of LC3 around Q103-HTT IB (mean±SEM) as shown in (F). […] [0137] […] The cells were permeabilized with digitonin before immunoblot analysis. LE, long exposure; SE, short exposure. [0138] (I) Quantification of normalized Q103-HTT (mean±SEM) in (H). […] [0139] […] The VLIR motif VIL is highlighted in red. [0140] […] The data are representative of three independent experiments. [0141] […] The cells were permeabilized with digitonin before fixation. [0142] (M) Quantification of LC3 around IBs (mean±SEM) as shown in (L). […] [0143] […] [0144] (O) Quantification of normalized Q103-HTT (mean±SEM) in (N).
as §1, with “After washing, 2×SDS loading buffer was added to the beads, and immunoblot was performed as described previously.” left out

HA-CCT8 = biological target: T3, HA-CCT8 (human, UniProt P50990 2-548); test: co-IP with T7-LC3C in HEK293T
T3 construct: not shown: N-terminal HA tag
T3 sequence (looked up): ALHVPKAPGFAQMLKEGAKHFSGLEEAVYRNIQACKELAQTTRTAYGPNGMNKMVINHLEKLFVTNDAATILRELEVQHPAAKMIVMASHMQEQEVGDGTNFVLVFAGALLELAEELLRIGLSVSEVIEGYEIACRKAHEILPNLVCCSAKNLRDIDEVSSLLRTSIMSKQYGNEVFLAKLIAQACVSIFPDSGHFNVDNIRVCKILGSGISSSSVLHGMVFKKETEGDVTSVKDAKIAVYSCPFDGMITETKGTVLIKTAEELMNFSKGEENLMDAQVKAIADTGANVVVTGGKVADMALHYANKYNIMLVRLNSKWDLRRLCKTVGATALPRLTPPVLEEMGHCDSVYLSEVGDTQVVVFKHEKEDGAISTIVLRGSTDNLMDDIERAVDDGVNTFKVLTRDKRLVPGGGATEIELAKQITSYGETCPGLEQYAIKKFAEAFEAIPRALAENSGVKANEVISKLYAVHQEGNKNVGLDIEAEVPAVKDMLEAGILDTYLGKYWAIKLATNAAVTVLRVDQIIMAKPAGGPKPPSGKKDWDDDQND
Procedure: (§2) The data are representative of three independent experiments. [0146] […] The data are representative of three independent experiments. [0147] […] The data are representative of three independent experiments. [0148] […] The interaction of the peptides with T7-GABARAP or T7-GABARAPL1 proteins was analyzed by in vitro pull-down. The data are representative of three independent experiments. [0149] […] The data are representative of three independent experiments. [0150] […] [0151] (K) Quantification of Q103-HTT-GFP area/DAPI area (mean±SEM) as shown in [0152] (J). 48 h represents IB accumulation stage and 72 h represents clearance stage. P values are indicated (two-tailed t test, >20 views from three independent experiments). [0153] […] The data are representative of three independent experiments. [0154] […] The data are representative of three independent experiments. [0155] […] The data are representative of three independent experiments.
(§3) Co-immunoprecipitation was performed essentially as described before. In brief, 24 h after transfection, the cells were collected and lysed on ice for 30 min in co-IP buffer (50 mM Tris/HCl pH 7.4, 150 mM NaCl, 1 mM EDTA, 0.5% NP40) with protease inhibitor mixture, and the lysates were cleared by centrifugation. The resulting supernatants were incubated with indicated agarose or magnetic beads and rotated at 4° C. for 3 h. The agarose was washed five times with co-IP buffer.

HA-CCT1 = biological target: T4, HA-CCT1 (human, UniProt P17987 1-556); test: co-IP with T7-LC3C in HEK293T
T4 construct: Amplified from HEK293T cDNA; not shown: N-terminal HA tag
Procedure: as §2, §3

HSP90AB1-HA = biological target: T5, HSP90AB1-HA (Homo sapiens (Human), UniProt P08238 2-724); test: co-IP with T7-LC3C in HEK293T
T5 construct: Plasmid pCDNA3-HSP90AB1-HA (addgene 22487); not shown: C-terminal HA tag
Procedure: as §2, §3

T4 sequence (P17987 whole entry): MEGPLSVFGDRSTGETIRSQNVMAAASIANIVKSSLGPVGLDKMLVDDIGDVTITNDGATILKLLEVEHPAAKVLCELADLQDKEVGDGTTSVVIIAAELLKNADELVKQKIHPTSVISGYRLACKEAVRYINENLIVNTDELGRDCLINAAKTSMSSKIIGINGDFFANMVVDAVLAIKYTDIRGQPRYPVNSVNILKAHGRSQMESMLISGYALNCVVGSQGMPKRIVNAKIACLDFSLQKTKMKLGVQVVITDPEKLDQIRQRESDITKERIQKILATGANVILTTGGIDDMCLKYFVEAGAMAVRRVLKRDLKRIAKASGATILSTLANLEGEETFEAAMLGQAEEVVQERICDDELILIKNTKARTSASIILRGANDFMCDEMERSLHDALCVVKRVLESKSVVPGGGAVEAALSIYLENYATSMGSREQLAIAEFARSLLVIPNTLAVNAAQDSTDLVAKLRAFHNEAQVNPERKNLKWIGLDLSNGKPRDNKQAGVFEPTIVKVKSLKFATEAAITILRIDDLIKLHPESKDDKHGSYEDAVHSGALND
T5 sequence (P08238 2-724 limits assumed): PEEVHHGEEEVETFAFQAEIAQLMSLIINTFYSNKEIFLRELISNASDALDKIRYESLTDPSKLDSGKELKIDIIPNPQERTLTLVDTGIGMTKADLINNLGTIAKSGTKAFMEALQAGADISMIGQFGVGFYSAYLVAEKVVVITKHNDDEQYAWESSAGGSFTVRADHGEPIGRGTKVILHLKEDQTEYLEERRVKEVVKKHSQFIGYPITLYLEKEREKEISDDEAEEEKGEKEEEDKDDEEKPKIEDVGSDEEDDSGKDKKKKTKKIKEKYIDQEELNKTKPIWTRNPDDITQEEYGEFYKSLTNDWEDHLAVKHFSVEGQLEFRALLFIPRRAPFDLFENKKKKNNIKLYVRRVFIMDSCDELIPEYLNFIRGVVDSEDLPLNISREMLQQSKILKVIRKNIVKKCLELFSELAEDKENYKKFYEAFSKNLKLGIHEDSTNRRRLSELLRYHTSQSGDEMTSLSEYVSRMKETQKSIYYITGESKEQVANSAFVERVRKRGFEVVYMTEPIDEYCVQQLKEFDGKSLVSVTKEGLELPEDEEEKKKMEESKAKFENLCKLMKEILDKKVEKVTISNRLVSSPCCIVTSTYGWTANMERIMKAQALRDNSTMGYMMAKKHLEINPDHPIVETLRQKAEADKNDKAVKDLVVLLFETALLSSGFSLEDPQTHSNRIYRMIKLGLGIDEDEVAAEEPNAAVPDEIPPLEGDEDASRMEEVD

B1: T7-LC3C (expressed in cells) (other, UniProt Q9BXW4 1-126, looked up)
chain: MPPPQKIPSVRPFKQRKSLAIRQEEVAGIRAKFPNKIPVVVERYPRETFLPPLDKTKFLVPQELTMTQFLSIIRSRMVLRATEAFYLLVNNKSLVSMSATMAEIYRDYKDEDGFVYMTYASQETFG
notes: Expressed from pCDNA3-T7-LC3C; not shown: T7 tag
B1: binds [1]; binds [2]; no binding (HA-CCT8). B1: binds (HA-CCT1); no binding (HSP90AB1-HA).
